Among the data in PMC4839367 are Kd values, retold here.

The target of this assay is Ad5D24 oncolytic adenovirus (viral particle, capsid) (human adenovirus serotype 5) (UniProt P04133). As to the kind of experiment: SPR.
UniProt P04133, sequence (P04133 whole entry, looked up): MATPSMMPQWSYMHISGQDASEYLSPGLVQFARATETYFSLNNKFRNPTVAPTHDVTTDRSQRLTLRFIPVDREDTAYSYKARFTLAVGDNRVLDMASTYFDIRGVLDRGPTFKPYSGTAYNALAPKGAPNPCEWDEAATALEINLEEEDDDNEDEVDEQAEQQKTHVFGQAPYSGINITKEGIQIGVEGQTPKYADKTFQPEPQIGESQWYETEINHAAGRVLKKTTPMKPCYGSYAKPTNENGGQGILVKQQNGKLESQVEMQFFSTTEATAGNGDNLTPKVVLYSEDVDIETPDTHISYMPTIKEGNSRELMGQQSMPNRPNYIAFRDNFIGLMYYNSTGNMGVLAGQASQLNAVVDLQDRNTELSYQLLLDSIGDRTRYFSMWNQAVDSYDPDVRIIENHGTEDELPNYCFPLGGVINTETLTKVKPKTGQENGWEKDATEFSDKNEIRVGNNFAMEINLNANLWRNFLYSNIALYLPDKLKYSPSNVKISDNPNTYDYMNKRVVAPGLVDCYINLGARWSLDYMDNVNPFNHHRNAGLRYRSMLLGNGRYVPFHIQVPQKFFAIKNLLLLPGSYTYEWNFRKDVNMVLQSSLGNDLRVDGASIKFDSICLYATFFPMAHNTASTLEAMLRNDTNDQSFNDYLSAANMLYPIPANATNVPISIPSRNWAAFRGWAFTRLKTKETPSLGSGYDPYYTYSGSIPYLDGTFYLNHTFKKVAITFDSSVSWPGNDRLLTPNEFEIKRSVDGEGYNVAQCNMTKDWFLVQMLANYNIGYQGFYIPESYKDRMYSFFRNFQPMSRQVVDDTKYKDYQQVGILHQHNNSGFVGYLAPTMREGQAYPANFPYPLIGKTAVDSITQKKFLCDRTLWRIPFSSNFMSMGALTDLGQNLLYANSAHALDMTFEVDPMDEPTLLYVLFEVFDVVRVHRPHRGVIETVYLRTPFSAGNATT

In general, Kd refers to the constant that tells how readily two partners part at equilibrium. Take polyK-SIINFEKL (peptide): the Kd worked out at 2880 nM. This counts as single-digit micromolar.
